According to the nanobody polyreactivity screen of Harvey et al. (2022):

Assay: yeast display, Sf9 membrane polyspecificity reagent, FACS + sequencing; frameworks hold sequencing errors
Summary of the method: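 In a synthetic yeast display library (Saccharomyces cerevisiae BJ5465), nanobody expression was induced with galactose for 36–48 hours. FACS gates were set low and high (top ~1%) using anti-HA fluorescence for expression and streptavidin fluorescence for binding of the Sf9 membrane reagent. Each polyreactivity label is drawn from the gate of origin.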

Row | Sequence | polyreactivity (PSR sort gate)
1 | QVPLVESGGGLVQAGGSLRLSCAASGSIFYTNAMGWSIPAPGKERELVARLSSSSGRTYYADSVKGRFPISRDNAKNTVYLKMKSLIPDYTAVYYCAARYLLRRHTNMDYWGHGTQVTVSS | high polyreactivity
2 | QVPLVESGGGLVQAGGSLRLSCAASGSTLYGYAMGWSSQAPGKERELVAAISYSGGRTFYADSVKGRFTISRDNAKNTVYLQMNSLKPADSAVYYCAAEYTVYVTDWYDYYDWGQGTQVTVAS | low polyreactivity
3 | QVPLVESGGGLVQAGGSLRLSCAPSGSTYYFYTMGWYIQAPGKERELVAAIRDSGSSTYYADSVKGRFTISRDNAKNTVYLQMNSLKPEDTAVYYCATGVDTYSLTVEHDSWGQGTQVTVSS | low polyreactivity
4 | QVPLVESGGGLVQGGGSLRLSCAASGSIFRGNAMGWYRQAPGKERELVAAISKSGGSTYYADSVKGRFTISRDNAKNTVYLHMNSLKPEDTAVYYCAARTTYLYGRYYWGQGTQVTVSS | low polyreactivity
5 | QVPLVESGGGVVQAGGSLRLSCAASGSIFNVNAMGWYRPAPGKERELVAAISSGGDTYYADSLKGRFTISRDNAKNTVYLQMNSLKPEDTAVYYCAAEIYTAYYEFDYWGQGTQVTVSS | low polyreactivity
6 | QVPLVESGGVLVQAGGSLRLSFAASGRIYENAMGWYRQAPVNERELVAVISWSGGSKSYADSVKRRLTISRDNAMNTVYFQMNRLKPEDTAVYYCNAYRLLSRRYYYLGQGTQVTVSS | low polyreactivity
7 | QVPLVESGVGLVQAGGSLRLSCAASGSIFSYYAMGWYRQATGKERELVAAITVRGGSTYYADSVKGRFSISRDNAKNTVYLQMYSLIPEDTAVYYCAAVWLDESFSYGPYYYWGQGTQVTVSS | low polyreactivity
8 | QVPLVESGVGLVQAGGSLRLSCAASGSTISYYYMGWYRQAPGKEREFVAAIRRRGSSTYYADSVKGRFTISRDNAKNTVYLQINSLKPEDTAVYYCAKRTIAGRGRQYDYWGQGTQVSVSS | high polyreactivity
9 | QVQFVESGGALVQAGGSLRLSCAASGSTFQGYAMGWYRQAPGKETELVAAISRSGGRTYYADSVTGRFTISRDNAKNTVYLQMISLKPEDTAVYYCAAEGHELTDGDSWGQGTQVTVSS | low polyreactivity
10 | QVQFVESGGGLVQAGGSLRLSCAASGFTFVWYDMGGYRQAPGKERELVAAISSGGSTYYADSVKGRFTISRDNAKNTVYLQMNSLKPEDTAVYYCAVYTGYYNYIYQYDYWGQGTQVTVSS | low polyreactivity
11 | QVQFVESGGGLVQAGGSLRLSCAASGFTFVWYDMGWYRQAPGKERELVAAISSGGSTYYADSVKGRFTISRDNAKNTVYLQMNSLKPEDTAVYYCAVYTGYYNYIYQYDYWGQGTQVTVSS | low polyreactivity
12 | QVQGVESGGGLVQAGGSLRLSCAASGLTFKENVMGWYRKAPGKERELVAAISTGASTYYADSVKGRFTISRDNANNTVYLQMNSLKPEDTAVYYCAAERWAQGYTYEYWGQGTQVTVSS | high polyreactivity
13 | QVQHEESGGGLVQAGGSLRLSCAASGRIFFGKVMGGYRQAPGTERELVAVITSGGNTNYADSVKGRFTISRDNAKNTVYLQMHSLKPEDTAVYYCATAVVAGVWGYDYWGQGTQVTVSS | low polyreactivity
14 | QVQHEESGGGLVQAGGSLRLSCAASGRIFGTDAMGWFRQAPGKDRELVAAIRSSGDSTYYADSVKGRFTISRDNAKNTVYLQMNSLKPEDTAVYYCARTLRYYRPVLLVYRFGYWGQGTQVTVSS | high polyreactivity
15 | QVQHEESGGGLVQAGGSLRLSCAASGRIFHFNTMGWYRQAPGKERELVAAITSSGGSTNYADSVKGRFTISRDNAKNTVYLQMNSLKPEDTAVYYCNADTGAADYFDFDYWGQGTQVTVSS | low polyreactivity
16 | QVQHEESRGGLVQAGGSLRLSCAASVRTFSVNAMGRYRQAPGKEREFVAVISSNGGSTYYADSVKGRFTISLDNAKNTVYLQMNSLKPEDTAVYYCNARYWRGWGGRVSKYGYWGHGTQVTVSS | high polyreactivity

Row | Sequence | polyreactivity (PSR sort gate)
17 | QVQHVDSGGGLVQEGGSLRLSCAASGRIFTYNAMGWYRQAPGKERELVAAISRRGGTTYYADSVKGRFTISRDNAKNTVYLQMNSLKPEDTAVYYCAAVVYTRGVTSRPVSRYDYWGQGTQVTVSS | high polyreactivity
18 | QVQHVESAGGLVQAGGSLRLSCPASGRTINRNAMGWYRQAPGKERELVAAISWSGGRTYYADSVKGRFTISRDTAKNTVYLQMTSLKPEDTAVFSCAAPGNKYWGQGTQVTVSS | high polyreactivity
19 | QVQHVESAGRLVQAGGSLRLSCAASGRILVYYALGWYRQPPGKEREFVAAISQRGGSTYYADSVKGRFTISRDNAKNTVYLQMNSLKPDDTEVYYCATRPIQYRRGYDYWGQGTQVTVSS | high polyreactivity
20 | QVQHVESGAGLVQAGGSLRLSCAASGLILVYYAMGWYRQAPGKEREFVAAITPGGSTKYADSVKGRFTISRDNAKNTVYLQMNSLKPEDTAVYYCNALSGPYWYSVYQYHQDDYWGQGTQVTVSS | low polyreactivity
21 | QVQHVESGAGLVQAGGSLRLSCAASGSIFEINAMGWYRQAPGKERELVAAITGSGGSTHYADSVKVRFTISRDNAKNTVYLQMNSLKPEDTAVYYCAAVPRYQYGYWGQGNQVTVSS | low polyreactivity
22 | QVQHVESGAGLVQAGGSLRLTCAASARTFKPYARGWYRQPPGKERELLAVISFSGGSTYYADSVKGRFTISRDNSKNTFYLQMNSLKPEDTAVYYCNAEGVTRQGGYDYWGQGTQVTVSS | high polyreactivity
23 | QVQHVESGARLVQAGGSLRLSCAASGSTFYRNTMGWYRQAPGTERELVAAISSGGSTNYADSVTGRFTISRDNAKNTVYLQMNSLKPEDTGVYYCAAAIRVISDGWYYYWYDYWGQGTPVTVSS | high polyreactivity
24 | QVQHVESGGGIVQAGGSLRLSCAASGRIFDSNAMGWYRQAPGKERELVAAITTSGGSTFYADSVKGRFTISRDNAKNTVYLQMNSLKPEDTAVYYCAAGYSYYYHAIFPFDYWGQGTQVTVSS | high polyreactivity
25 | QVQHVESGGGIVQAGGSLRLSCAASGSTFIYNAMGWYRQAPGKERELVAAIDWSGGDTYYADSVKGRFTISRDNAKNTVYLQMNCLKPEDTAVYYCATRWPHYGGYYYWGQGTQVTVSS | high polyreactivity
26 | QVQHVESGGGIVQAGGSLRLSCAASGSTFRWYAMGWYRQARGQERELVAAFTAGGRTYYADSVKGRFTISRDNAKNTVYLQMNSLKPEDTAVYYCNALGKVWRGGKFGYWGQGTQVTVSS | high polyreactivity
27 | QVQHVESGGGLGQAGGSLRLSCAASGGTFQTNAKGCYRQAPGKERELVAGIRWRGGSTYYADSVKGRFTISRDNAKNTVYLQMKSLKPEDTAVYYCAAYYWQGTYDSRRTGWRLMNYWGQGTQVTVSS | high polyreactivity
28 | QVQHVESGGGLLQAGGSLRLTCAASGSTFGTYAMGWYRQAPGKERELVATISIGGITYYADSVKGRFTISRDNAKNTVYLQLNSLKPEDTAVYYCAKDVNDATSRSDPSGDDYWGQGTQVTVSS | low polyreactivity
29 | QVQHVESGGGLLQPGGSLRLSCAASGSTFRTNAMGWYRQAPGKERELVAAISRSTGSTYYADSVKGRFTISRDNAKNTVYLQMNSLKTVDSAVFYCNALSGFWGQGTQVTVSS | low polyreactivity
30 | QVQHVESGGGLVQAGGSHRLSSAASGSTFIPNAMRWYRQAPGKERELVAAISGSGGRTYYADSVKGRFTISRDNAKNTVYLQMNSLKPEDTAVYYCAASGTSRSRKSYYWGQGTQVTVSS | high polyreactivity
31 | QVQHVESGGGLVQAGGSLRLICAASGIIFDYNAMGWYRQAPGKERELVATNNDSGGSTSYAYSVKGRFTISRDKAKNTVYLQMNCLKPDDTAVYYCAVLPVYWYWRNYVYLSGYDYWGQGSQVTVSS | low polyreactivity
